Molecular target: IL-17A (agonist in the IL-17RA/IL17RC dimerization assay) (UniProt Q16552 24-155)
Experiment: cell-based or functional assay

IL-17A (agonist in the IL-17RA/IL17RC dimerization assay), sequence (Q16552 24-155 limits assumed): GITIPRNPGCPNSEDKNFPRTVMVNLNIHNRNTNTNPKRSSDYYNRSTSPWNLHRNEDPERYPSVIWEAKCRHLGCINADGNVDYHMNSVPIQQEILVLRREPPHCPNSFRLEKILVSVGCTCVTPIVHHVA

B1: peptide of SEQ ID NO: 133 (peptide)
peptide: Ac-VHFQFPADLWNWVRR-NH2
IC50 in IL-17RA/IL7RC dimerization assay: < 500 nM

B2: peptide of SEQ ID NO: 139 (peptide)
peptide: Ac-VHFQFPQDWWNWVRR-NH2
IC50 in IL-17RA/IL7RC dimerization assay: < 500 nM

B3: peptide of SEQ ID NO: 3 (peptide)
peptide: Ac-IMVTIPADLWDWINK-NH2
IC50 in IL-17RA/IL7RC dimerization assay: < 400 nM

B4: peptide of SEQ ID NO: 143 (peptide)
peptide: Ac-VHVQIPADFWEWFRR-NH2
IC50 in IL-17RA/IL7RC dimerization assay: < 500 nM

B5: peptide of SEQ ID NO: 122 (peptide)
peptide: Ac-VHVYIPAELWEWVRR-NH2
IC50 in IL-17RA/IL7RC dimerization assay: < 500 nM

B6: peptide of SEQ ID NO: 21 (peptide)
peptide: Ac-VMVTIPADLYEWIEEARKKAAKA-NH2
IC50 in IL-17RA/IL7RC dimerization assay: < 1000 nM

B7: peptide of SEQ ID NO: 125 (peptide)
peptide: Ac-VHFTFPQDFWEWVRR-NH2
IC50 in IL-17RA/IL7RC dimerization assay: < 500 nM

B8: peptide of SEQ ID NO: 117 (peptide)
peptide: Ac-VHVTIPADFWEWVRR-NH2
IC50 in IL-17RA/IL7RC dimerization assay: < 500 nM

B9: peptide of SEQ ID NO: 124 (peptide)
peptide: Ac-VHFTFPQDLWEWVRR-NH2
IC50 in IL-17RA/IL7RC dimerization assay: < 500 nM

B10: peptide of SEQ ID NO: 255 (peptide)
peptide: Ac-VEFNFPQQVYEWFDD-NH2
IC50 in IL-17RA/IL7RC dimerization assay: < 10000 nM

B11: peptide of SEQ ID NO: 250 (peptide)
peptide: Ac-IHVTIPGEIFEWLQH-NH2
IC50 in IL-17RA/IL7RC dimerization assay: < 10000 nM

B12: peptide of SEQ ID NO: 140 (peptide)
peptide: Ac-VHFQFPQDLWEFVRR-NH2
IC50 in IL-17RA/IL7RC dimerization assay: < 500 nM

B13: peptide of SEQ ID NO: 112 (peptide)
peptide: Ac-VHFTIPADLWEWVRR-NH2
IC50 in IL-17RA/IL7RC dimerization assay: < 500 nM

B14: peptide of SEQ ID NO: 252 (peptide)
peptide: Ac-LRISVPLEIFEWLQH-NH2
IC50 in IL-17RA/IL7RC dimerization assay: < 10000 nM

B15: peptide of SEQ ID NO: 26 (peptide)
peptide: Ac-VMVTIPADLYEWIEEVPGKG-NH2
IC50 in IL-17RA/IL7RC dimerization assay: < 1000 nM

B16: peptide of SEQ ID NO: 113 (peptide)
peptide: Ac-VHVQIPADLWEWVRR-NH2
IC50 in IL-17RA/IL7RC dimerization assay: < 500 nM

B17: peptide of SEQ ID NO: 141 (peptide)
peptide: Ac-VHFQFPQDWWEWFRR-NH2
IC50 in IL-17RA/IL7RC dimerization assay: < 500 nM

B18: peptide of SEQ ID NO: 115 (peptide)
peptide: Ac-VHVTIPQDLWEWVRR-NH2
IC50 in IL-17RA/IL7RC dimerization assay: < 500 nM

B19: peptide of SEQ ID NO: 32 (peptide)
peptide: Ac-GGTWWTEWSQVMVTIPADLYEWIEE-NH2
IC50 in IL-17RA/IL7RC dimerization assay: < 1000 nM

B20: peptide of SEQ ID NO: 130 (peptide)
peptide: Ac-VHFQFPADLWEWVRR-NH2
IC50 in IL-17RA/IL7RC dimerization assay: < 500 nM

B21: peptide of SEQ ID NO: 25 (peptide)
peptide: Ac-VMVTIPADLYEWIEEGGKETWWETW-NH2
IC50 in IL-17RA/IL7RC dimerization assay: < 1000 nM

B22: peptide of SEQ ID NO: 142 (peptide)
peptide: Ac-VHFTIPADFWEWFRR-NH2
IC50 in IL-17RA/IL7RC dimerization assay: < 500 nM

B23: peptide of SEQ ID NO: 28 (peptide)
peptide: Ac-VMVTIPADLYEWIEERQIKIWFQNRRMKWKK-NH2
IC50 in IL-17RA/IL7RC dimerization assay: < 1000 nM

B24: peptide of SEQ ID NO: 251 (peptide)
peptide: Ac-VRFSVPQEIYEWVRR-NH2
IC50 in IL-17RA/IL7RC dimerization assay: < 10000 nM

B25: peptide of SEQ ID NO: 121 (peptide)
peptide: Ac-VHVTIPADLWEWFRR-NH2
IC50 in IL-17RA/IL7RC dimerization assay: < 500 nM

B26: peptide of SEQ ID NO: 35 (peptide)
peptide: Ac-VPGAGVMVTIPADLYEWIEE-NH2
IC50 in IL-17RA/IL7RC dimerization assay: < 1000 nM

B27: peptide of SEQ ID NO: 129 (peptide)
peptide: Ac-VHFTFPQDLWEWFRR-NH2
IC50 in IL-17RA/IL7RC dimerization assay: < 500 nM

B28: peptide of SEQ ID NO: 254 (peptide)
peptide: Ac-VKISVPLEIFEWLQH-NH2
IC50 in IL-17RA/IL7RC dimerization assay: < 10000 nM

B29: peptide of SEQ ID NO: 128 (peptide)
peptide: Ac-VHFTFPQDLWEFVRR-NH2
IC50 in IL-17RA/IL7RC dimerization assay: < 500 nM

B30: peptide of SEQ ID NO: 144 (peptide)
peptide: Ac-VHVTFPADLWEWFRR-NH2
IC50 in IL-17RA/IL7RC dimerization assay: < 500 nM

B31: peptide of SEQ ID NO: 145 (peptide)
peptide: Ac-VHVTIPQDFWEWFRR-NH2
IC50 in IL-17RA/IL7RC dimerization assay: < 500 nM

B32: peptide of SEQ ID NO: 24 (peptide)
peptide: Ac-VMVTIPADLYEWIEEVPGWG-NH2
IC50 in IL-17RA/IL7RC dimerization assay: < 1000 nM

B33: peptide of SEQ ID NO: 116 (peptide)
peptide: Ac-VHVTIPANLWEWVRR-NH2
IC50 in IL-17RA/IL7RC dimerization assay: < 500 nM

B34: peptide of SEQ ID NO: 111 (peptide)
peptide: Ac-VHVTIPAELWEWVRR-NH2
IC50 in IL-17RA/IL7RC dimerization assay: < 500 nM

B35: peptide of SEQ ID NO: 146 (peptide)
peptide: Ac-VHFTIPQDWWEWVRR-NH2
IC50 in IL-17RA/IL7RC dimerization assay: < 500 nM

B36: peptide of SEQ ID NO: 6 (peptide)
peptide: Ac-IHVTIPADLYDWINK-NH2
IC50 in IL-17RA/IL7RC dimerization assay: < 400 nM

B37: peptide of SEQ ID NO: 23 (peptide)
peptide: Ac-VMVTIPADLYEWIEETWWETWW-NH2
IC50 in IL-17RA/IL7RC dimerization assay: < 1000 nM

B38: peptide of SEQ ID NO: 118 (peptide)
peptide: Ac-VHVTIPADLYEWVRR-NH2
IC50 in IL-17RA/IL7RC dimerization assay: < 500 nM

B39: peptide of SEQ ID NO: 19 (peptide)
peptide: Ac-VMVTIPADLYEWIEERRRRRR-NH2
IC50 in IL-17RA/IL7RC dimerization assay: < 1000 nM

B40: peptide of SEQ ID NO: 137 (peptide)
peptide: Ac-VHFQIPQDWWEWVRR-NH2
IC50 in IL-17RA/IL7RC dimerization assay: < 500 nM

B41: peptide of SEQ ID NO: 29 (peptide)
peptide: Ac-RRRRRRRRVMVTIPADLYEWIEE-NH2
IC50 in IL-17RA/IL7RC dimerization assay: < 1000 nM

B42: peptide of SEQ ID NO: 30 (peptide)
peptide: Ac-VMVTIPADLYEWIEERRRRRRRR-NH2
IC50 in IL-17RA/IL7RC dimerization assay: < 1000 nM

B43: peptide of SEQ ID NO: 135 (peptide)
peptide: Ac-VHFQFPADLWEWFRR-NH2
IC50 in IL-17RA/IL7RC dimerization assay: < 500 nM

B44: peptide of SEQ ID NO: 33 (peptide)
peptide: Ac-GGKETWWETWVMVTIPADLYEWIEE-NH2
IC50 in IL-17RA/IL7RC dimerization assay: < 1000 nM

B45: peptide of SEQ ID NO: 126 (peptide)
peptide: Ac-VHFTIPQDLYEWVRR-NH2
IC50 in IL-17RA/IL7RC dimerization assay: < 500 nM

B46: peptide of SEQ ID NO: 22 (peptide)
peptide: Ac-VMVTIPADLYEWIEEGGTWWTEWSQ-NH2
IC50 in IL-17RA/IL7RC dimerization assay: < 1000 nM

B47: peptide of SEQ ID NO: 123 (peptide)
peptide: Ac-VHVTIPAEWWEWVRR-NH2
IC50 in IL-17RA/IL7RC dimerization assay: < 500 nM

B48: peptide of SEQ ID NO: 256 (peptide)
peptide: Ac-VEFNFPQQVYEWVRR-NH2
IC50 in IL-17RA/IL7RC dimerization assay: < 10000 nM

B49: peptide of SEQ ID NO: 257 (peptide)
peptide: Ac-TWYVFNEQHQEYVRK-NH2
IC50 in IL-17RA/IL7RC dimerization assay: < 10000 nM

B50: peptide of SEQ ID NO: 5 (peptide)
peptide: Ac-IHVTIPAELWDWINK-NH2
IC50 in IL-17RA/IL7RC dimerization assay: < 100 nM

B51: peptide of SEQ ID NO: 27 (peptide)
peptide: Ac-VMVTIPADLYEWIEEVPGAG-NH2
IC50 in IL-17RA/IL7RC dimerization assay: < 1000 nM

B52: peptide of SEQ ID NO: 120 (peptide)
peptide: Ac-VHVTIPADLWEFVRR-NH2
IC50 in IL-17RA/IL7RC dimerization assay: < 500 nM

B53: peptide of SEQ ID NO: 134 (peptide)
peptide: Ac-VHFQFPADLWEFVRR-NH2
IC50 in IL-17RA/IL7RC dimerization assay: < 500 nM

B54: peptide of SEQ ID NO: 20 (peptide)
peptide: Ac-VMVTIPADLYEWIEERRR-NH2
IC50 in IL-17RA/IL7RC dimerization assay: < 1000 nM

B55: peptide of SEQ ID NO: 253 (peptide)
peptide: Ac-LRGSVPLEIFEWLQH-NH2
IC50 in IL-17RA/IL7RC dimerization assay: < 10000 nM

B56: peptide of SEQ ID NO: 127 (peptide)
peptide: Ac-VHFTFPQDLWNWVRR-NH2
IC50 in IL-17RA/IL7RC dimerization assay: < 500 nM

B57: peptide of SEQ ID NO: 119 (peptide)
peptide: Ac-VHVTIPADLWNWVRR-NH2
IC50 in IL-17RA/IL7RC dimerization assay: < 500 nM

B58: peptide of SEQ ID NO: 31 (peptide)
peptide: Ac-ARKKAAKAVMVTIPADLYEWIEE-NH2
IC50 in IL-17RA/IL7RC dimerization assay: < 1000 nM

B59: peptide of SEQ ID NO: 34 (peptide)
peptide: Ac-VPGWGVMVTIPADLYEWIEE-NH2
IC50 in IL-17RA/IL7RC dimerization assay: < 1000 nM

B60: peptide of SEQ ID NO: 114 (peptide)
peptide: Ac-VHVTFPADLWEWVRR-NH2
IC50 in IL-17RA/IL7RC dimerization assay: < 500 nM

B61: peptide of SEQ ID NO: 36 (peptide)
peptide: Ac-VPGKGVMVTIPADLYEWIEE-NH2
IC50 in IL-17RA/IL7RC dimerization assay: < 1000 nM
